From patent US20100254992A1 (published 2010)

What was measured:
human Eotaxin 3 = target: T1, human Eotaxin 3 (human, UniProt Q9Y258 24-94); experiment: Biacore, IgG capture mode
T1 sequence (looked up): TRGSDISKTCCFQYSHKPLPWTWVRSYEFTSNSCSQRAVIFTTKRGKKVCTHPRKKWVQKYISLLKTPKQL

human MCP-3 = target: T2, human MCP-3 (human, UniProt P80098 24-99); experiment: Biacore, IgG capture mode
T2 construct: also called CCL7

human MCP-4 = target: T3, human MCP-4 (human, UniProt Q99616 24-98, limits assumed); experiment: Biacore, IgG capture mode
T3 construct: also called CCL13

human Eotaxin 2 = target: T4, human Eotaxin 2 (human, UniProt O00175 27-104, limits assumed); experiment: Biacore, IgG capture mode
T4 sequence (looked up): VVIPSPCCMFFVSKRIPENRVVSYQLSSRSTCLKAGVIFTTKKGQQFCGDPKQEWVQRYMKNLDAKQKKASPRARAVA

human Eotaxin 1 = human Eotaxin 1 (human, UniProt P51671 24-97); experiment: BioVeris solution equilibrium titration
Experimental: Solution Equilibrium Titration (SET) Method for KD Determination and Cross-Reactivity Studies Using BioVeris. Affinity determination in solution was basically performed as described in the literature (Friguet et al., 1985). In order to improve the sensitivity and accuracy of the SET method, it was transferred from classical ELISA to ECL based BioVeris technology (Haenel et al., 2005, accepted for publication in Analytical Biochemistry). 1 mg/ml goat-anti-human (Fab)₂ or goat-anti-mouse IgG, Fc fragment specific antibodies (Jackson Immuno Research) were labelled with BV-tag™ NHS-Ester (Bioveris Europe, Witney, Oxfordshire, UK) according to manufacturer's instructions. The experiments were carried out in polypropylene microtiter plates and PBS pH 7.4 with 0.5% BSA and 0.02% Tween 20 as assay buffer. Unlabeled antigen was diluted in 4ⁿ series: For human and cyno MCP-1 a concentration range of 10 pM to 40 nM and for cross-reactivity controls (Eotaxin and MCP-2) a concentration range of 40 pM to 160 nM was chosen. Wells without antigen were used to determine Smax values. After addition of 100 pM Fab or IgG (final concentration in 75 μL final volume), the mixture was incubated for 2 hours at RT. […]
Specificity Testing Using BioVeris. Beside the affinity also the specificity, especially the cross-reactivity to Eotaxin and MCP-2, was analyzed in solution equilibrium titration (SET) using BioVeris. […]

T2 sequence (P80098 24-99 limits assumed): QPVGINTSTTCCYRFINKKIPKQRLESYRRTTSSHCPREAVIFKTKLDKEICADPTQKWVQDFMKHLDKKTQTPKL

binding result (human Eotaxin 3): no binding (tested: 100 nM) | binding result (human MCP-3): no binding (tested: 100 nM) | binding result (human MCP-4): no binding (tested: 100 nM) | binding result (human Eotaxin 2): no binding (tested: 100 nM) | binding result (human Eotaxin 1): no binding (tested: 40 pM to 160 nM)
B1: MOR03790 IgG1 (antibody, V domains shown)
VH: QVELVQSGAEVKKPGSSVKVSCKASGGTFSSYGISWVRQAPGQGLEWMGGIIPIFGTANYAQKFQGRVTITADESTSTAYMELSSLRSEDTAVYYCARYDGIYGELDFWGQGTLVTVSS
VL: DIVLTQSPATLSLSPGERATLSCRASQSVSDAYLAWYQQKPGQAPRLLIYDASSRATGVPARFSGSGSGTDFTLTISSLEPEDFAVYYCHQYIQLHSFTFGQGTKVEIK
notes: Human IgG1; also called MOR3790 IgG1; MOR3790k IgG
